The values below come from paper PMC4683259.

Experiment [1] addresses KV10.1 voltage-gated potassium channel, full-length form (E100) (human) (UniProt O95259).
Experiment [2] has the same target. This is another data set of the same source.
The target is the same in experiment [3]. This is another data set of the same source.

UniProt O95259, sequence (O95259 whole entry): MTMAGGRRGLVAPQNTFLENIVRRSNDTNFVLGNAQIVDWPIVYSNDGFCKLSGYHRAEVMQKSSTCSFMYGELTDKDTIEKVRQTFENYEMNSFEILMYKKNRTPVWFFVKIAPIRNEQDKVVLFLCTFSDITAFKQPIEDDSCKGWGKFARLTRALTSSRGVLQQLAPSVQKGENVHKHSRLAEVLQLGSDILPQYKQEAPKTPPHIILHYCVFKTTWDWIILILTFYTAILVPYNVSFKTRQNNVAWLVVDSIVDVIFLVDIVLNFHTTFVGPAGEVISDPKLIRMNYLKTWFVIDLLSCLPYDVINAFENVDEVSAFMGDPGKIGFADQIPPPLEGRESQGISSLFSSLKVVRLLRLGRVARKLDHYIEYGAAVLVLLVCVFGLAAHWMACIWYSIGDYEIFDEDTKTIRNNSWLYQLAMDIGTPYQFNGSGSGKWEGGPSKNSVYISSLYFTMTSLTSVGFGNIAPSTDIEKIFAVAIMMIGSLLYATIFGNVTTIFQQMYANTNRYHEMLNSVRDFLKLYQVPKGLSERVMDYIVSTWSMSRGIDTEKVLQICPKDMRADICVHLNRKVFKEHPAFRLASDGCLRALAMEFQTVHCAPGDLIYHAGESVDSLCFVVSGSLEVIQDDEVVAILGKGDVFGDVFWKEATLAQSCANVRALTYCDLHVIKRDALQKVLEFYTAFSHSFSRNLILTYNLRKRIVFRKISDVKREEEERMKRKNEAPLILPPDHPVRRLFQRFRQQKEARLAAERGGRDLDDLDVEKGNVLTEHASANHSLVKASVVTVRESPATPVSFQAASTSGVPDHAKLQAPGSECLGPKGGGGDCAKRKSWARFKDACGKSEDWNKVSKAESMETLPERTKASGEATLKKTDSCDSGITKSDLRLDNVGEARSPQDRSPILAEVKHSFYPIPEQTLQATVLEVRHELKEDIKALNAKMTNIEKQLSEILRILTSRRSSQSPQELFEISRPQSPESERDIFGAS

In experiment [1], “E65^L405YmVenus (TCC-defective E65 fused to mVenus) (natural protein)” gave a reduction of KV10.1 current amplitude, whole-cell patch clamp, HEK-KV10.1 cells transfected with E65^L405YmVenus (not statistically significant) of 20.8%. As for “E65mVenus (KV10.1 splice variant E65 fused to mVenus) (natural protein)”, the reduction of KV10.1 current, two-electrode voltage clamp, Xenopus oocytes co-injected with E65 and KV10.1 cRNA at a 1:10 ratio (E65 from pSGEM, no mVenus) in experiment [2] amounted to 85%. This substance registered a reduction of KV10.1 current, whole-cell patch clamp, HEK293 cells stably expressing KV10.1 and transfected with E65mVenus (control mVenus alone) in experiment [3] of 41.7%. On to “E70mVenus (KV10.1 splice variant E70 fused to mVenus) (natural protein)”, for which the reduction of KV10.1 current, two-electrode voltage clamp, Xenopus oocytes co-injected with E70 and KV10.1 cRNA at a 1:10 ratio (E70 from pSGEM, no mVenus) in experiment [2] stood at 60%. Besides, the reduction of KV10.1 current, whole-cell patch clamp, HEK293 cells stably expressing KV10.1 and transfected with E70mVenus (control mVenus alone) in experiment [3] amounted to 53.8%. Turning to “E70^L556YmVenus (TCC-defective E70 fused to mVenus) (natural protein)”, the reduction of KV10.1 current density at +80 mV, whole-cell patch clamp, HEK-KV10.1 cells transfected with E70^L556YmVenus in experiment [1] stood at 45.3%.
